Assay results as given in patent US20020123056A1 (priority 2000, published 2002).

Tests used:
SGK2 [1] = target: T1, SGK2 (Homo sapiens, UniProt Q9HBY8); format: biochemical
T1 sequence (Q9HBY8 whole entry, looked up): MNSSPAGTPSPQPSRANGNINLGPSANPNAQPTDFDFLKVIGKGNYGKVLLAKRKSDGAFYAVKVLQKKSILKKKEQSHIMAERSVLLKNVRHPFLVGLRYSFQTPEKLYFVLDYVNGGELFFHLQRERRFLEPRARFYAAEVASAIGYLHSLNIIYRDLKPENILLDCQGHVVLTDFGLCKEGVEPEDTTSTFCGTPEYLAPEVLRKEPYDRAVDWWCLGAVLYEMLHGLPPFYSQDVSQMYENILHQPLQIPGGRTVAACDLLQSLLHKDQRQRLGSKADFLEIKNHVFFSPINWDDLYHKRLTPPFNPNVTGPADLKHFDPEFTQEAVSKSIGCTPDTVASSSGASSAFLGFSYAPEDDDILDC

SGK2 [2] = format: biochemical, human

Compound | incorporation of 32P into peptide substrate (SGK2 [1]) | effect on SGK2 kinase activity (SGK2 [2])
KTFCGTPEYLAPEVRREPRILSEEEQEMFRDFDYI [PDK1 peptide] | no significant incorporation | –
CKRPRAASFAE [PKB-sub] | significant incorporation | –
COC[C@@H]([C@H](O)[C@H](O)C(=O)NCC[C@H](C)c1nc(/C=C/C[C@@H]2O[C@]3(C[C@@H](O)[C@@H]2C)O[C@H]([C@H](C[C@H](O)[C@H](C)[C@H](O)[C@H](C)/C=C(C)/C(C)=C/C=C/C(C)=C\C#N)OC)[C@H](OP(=O)(O)O)C3(C)C)co1)N(C)C [Calyculin A] | – | stimulated SGK2 kinase activity
C=C1[C@@H](O)[C@@H]2O[C@]3(CC[C@H](/C=C/[C@@H](C)[C@@H]4CC(C)=C[C@@]5(O[C@H](C[C@@](C)(O)C(=O)O)CC[C@H]5O)O4)O3)CC[C@H]2O[C@@H]1[C@@H](O)C[C@H](C)[C@H]1O[C@@]2(CCCCO2)CC[C@H]1C [Okadaic Acid] | – | stimulated SGK2 kinase activity
